# Source: patent publication US20120263652A1 (UNIVERSITY OF MARYLAND COLLEGE PARK, published 2012)
# B1: B9 peptide (phage display-derived 7-mer) (peptide)
# peptide: FSPHSRT
# notes: Tested as a phage clone and as a synthetic peptide; The assay field says which; also called B9 clone
# B2: A1 peptide (phage display-derived 7-mer) (peptide)
# peptide: YPASYQR
# notes: Tested as a phage clone (5 copies of the peptide on the capsid; coat protein fusion not described) and as a peptide synthesized in vitro; The assay field says which; also called A1 clone; clone A1 phages
# B3: B8 peptide (phage display-derived 7-mer) (peptide)
# peptide: GSLLSAA
# notes: Tested as a phage clone and as a synthetic peptide; The assay field says which; also called B8 clone
# B4: 2γ3 peptide (peptide)
# peptide: NNQKIVNIKEKVAQIEA
# notes: Derivative of γ3, tested absorbed on polystyrene or PLGA carriers; also called 2γ3 carriers; 2γ3/ASM carriers
# B5: 3γ3 peptide (peptide)
# peptide: NNQKLVNIKEKVAQIEA
# notes: Derivative of γ3, tested absorbed on polystyrene carriers; also called 3γ3 carriers; 3γ3/ASM carriers
# B6: γ3 peptide (17 amino acid peptide derived from the γ chain of fibrinogen) (peptide)
# peptide: NNQKIVNLKEKVAQLEA
# notes: Synthetic peptide; Tested mostly absorbed on 100 nm FITC polystyrene carriers, in some assays together with recombinant acid sphingomyelinase (ASM); also called γ3 carriers; γ3/ASM carriers
# What was measured:
# [1] = target: human ICAM-1 (native, expressed on human cells: HUVEC, Caco-2) (human) (UniProt P05362); experiment: FITC IgG polystyrene carriers on fixed TNF-α-activated Caco-2 cells; fluorescence microscopy
# Chain of human ICAM-1 (native, expressed on human cells: HUVEC, Caco-2) (human) (P05362 28-532): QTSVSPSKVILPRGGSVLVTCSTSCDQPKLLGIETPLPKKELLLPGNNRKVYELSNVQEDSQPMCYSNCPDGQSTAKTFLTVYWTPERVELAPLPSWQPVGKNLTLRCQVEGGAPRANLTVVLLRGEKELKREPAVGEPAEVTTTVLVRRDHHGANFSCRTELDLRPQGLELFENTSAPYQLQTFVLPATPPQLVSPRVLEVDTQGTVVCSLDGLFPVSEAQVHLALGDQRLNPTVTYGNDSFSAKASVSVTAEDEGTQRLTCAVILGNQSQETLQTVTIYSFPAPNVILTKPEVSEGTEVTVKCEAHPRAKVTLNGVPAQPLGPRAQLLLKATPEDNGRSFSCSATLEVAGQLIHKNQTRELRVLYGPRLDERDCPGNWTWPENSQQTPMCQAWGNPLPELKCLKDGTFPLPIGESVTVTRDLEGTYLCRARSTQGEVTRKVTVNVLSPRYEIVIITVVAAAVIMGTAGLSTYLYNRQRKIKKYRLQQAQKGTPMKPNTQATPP
# [2] = target: human ICAM-1 (native, expressed on human cells: HUVEC, Caco-2) (human) (UniProt P05362); experiment: competition: free non-specific IgG against FITC anti-ICAM carriers on Caco-2 cells; fluorescence microscopy
# [3] = target: mouse ICAM-1 (native, expressed on mouse endothelial cells) (mouse) (UniProt P13597); experiment: phage binding to H5V mouse endothelial cells; microscopy with fluorescent antibody to the phage capsid
# [4] = target: T1, mouse ICAM-1 chimera: the two most membrane-distal Ig domains (1 and 2) of mouse ICAM-1 fused to human Fc (mouse; human, UniProt P13597 28-214, limits assumed); experiment: phage ELISA on immobilized mouse ICAM-1/hFc
# T1 construct: domain: the two most membrane-distal Ig domains -1 and 2-; also called mouse ICAM-1/Fc; mouse ICAM-1/hFc; not shown: human Fc (hFc)
# T1 sequence (P13597 28-214 limits assumed, stated change not applied): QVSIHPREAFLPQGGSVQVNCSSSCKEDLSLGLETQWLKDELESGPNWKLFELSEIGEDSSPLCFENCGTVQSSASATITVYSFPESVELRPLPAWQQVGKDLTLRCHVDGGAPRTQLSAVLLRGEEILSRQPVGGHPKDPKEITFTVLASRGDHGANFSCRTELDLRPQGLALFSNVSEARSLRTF
# Excerpt: (§1) Example 5 details development of the 7-mer phage-display derived peptides against ICAM-1. These were identified and isolated from a random library by using a chimeric ICAM-1 protein consisting of the two most membrane-distal Ig domains of mouse ICAM-1 fused to human Fc (hFc). One round of negative selection against hFc, followed by three rounds of positive selection against mouse ICAM-1/hFc, rendered six phage clones (A1, B7, B8, B9, B10, and D6), which recognized immobilized mouse ICAM-1 (FIG. 5A).
# (§2) (A) ELISA measurement of the binding of 7-mer peptide expressing phage library to immobilized recombinant ICAM-1 (consisting of the two most membrane-distal Ig domains −1 and 2- of mouse ICAM-1 fused to human Fc or hFc), versus their binding to control hFc. (B) Relative specificity and (C) relative affinity of ICAM-1-targeting peptide phages, determined by ELISA from the experiment in (A). (D) Relative binding of phages expressing 7-mer peptides to native ICAM-1 expressed on the surface of HV5 mouse endothelial cells, either control or activated with TNFalpha to mimic a disease phenotype. Binding was determined by microscopy using a fluorescently-labeled antibody to the phage capsid.
# [5] = target: T1, mouse ICAM-1 chimera: the two most …; experiment: phage ELISA on immobilized mouse ICAM-1/hFc, relative to non-selected phages
# Excerpt: as §1, §2
# [6] = target: T1, mouse ICAM-1 chimera: the two most …; experiment: phage ELISA, binding to mouse ICAM-1/hFc relative to control hFc
# Excerpt: as §1, §2
# [7] = target: T2, human ICAM-1 (native, expressed on human cells: HUVEC, Caco-2) (human, UniProt P05362 28-532); experiment: competition: synthetic peptide against FITC anti-ICAM polystyrene nanocarriers on human endothelial cells; fluorescence microscopy
# T2 construct: whole, on cells; also called intercellular adhesion molecule 1; native human ICAM-1
# T2 sequence (P05362 28-532): as the sequence (P05362 28-532) above
# Excerpt: as §2, with “capsid. The line in the graph indicates the level of binding of A1 phage to 293 cells, which are voided of ICAM-1-expression. […] (G) Binding of FITC-labeled anti-ICAM polystyrene nanocarriers to human endothelial cells was evaluated by fluorescence microscopy after incubation with cells in the absence (100% level) or presence of anti-ICAM antibody, ICAM-1-targeting synthetic peptides, or peptides with their scramble sequence (e.g., A1 sc).” for “capsid.”
# [8] = target: T2, human ICAM-1 (native, expressed on …); experiment: 100 nm FITC polystyrene carriers coated with peptide on endothelial cells; fluorescence microscopy
# [9] = target: T1, mouse ICAM-1 chimera: the two most …; experiment: γ3 absorbed on 100 nm FITC polystyrene particles; nitrocellulose-immobilized ICAM-1/Fc vs albumin; fluorescence microscopy
# Protocol: (A) The peptide γ3 was absorbed on the surface of 100 nm FITC-labeled polystyrene carriers and the resulting products were incubated for 15 min on nitrocellulose-immobilized albumin vs human or mouse ICAM-1 chimeras containing ICAM-1-Ig domains 1 and 2 fused to human Fc sequence. The membranes were washed and analyzed by fluorescence microscopy to quantify the number of carriers bound per area. Data are expressed relative to non-specific binding of γ3 carriers to albumin controls (dotted line). A comparison to binding of anti-ICAM carriers is provided (dashed line). (B) Binding of FITC-labeled polystyrene carriers coated by absorption with the peptide γ3 and recombinant acid sphingomyelinase (ASM, a therapeutic enzyme) to activated HUVEC (bars) vs ICAM-1-negative 293 cells (dotted line) was quantified by fluorescence microscopy after 1 h incubation at 37° C., in the absence or presence of excess γ3, anti-ICAM, γ3 scramble peptide, or mannose 6 phosphate (M6P). […] (C) HUVEC lysosomes were labeled for 2 h with Texas-red dextran at 37° C. […] Co-localization of FITC carriers with Texas-red dextran-lysosomes was quantified by fluorescence microscopy. […] Co-localization of FITC 2γ3 carriers with Texas red dextran-labeled lysosomes was assessed by microscopy 3 h post-internalization. […]
molecule,measurement,setting,value
non-specific IgG (control) (antibody),carriers/cell (carriers/cell),[1],1.3
same,"carrier binding, % of the control value with no competitor",[2],102 % of control
B1,"affinity, % of A1",[3],72.3 % of A1
same,binding result,[4],binds
GCKLCAQ [D6 peptide (phage display-derived 7-mer)],"affinity, % of A1",[3],92.9 % of A1
B2,"affinity, fold over non-selected phages",[5],~4.7 fold
same,specificity vs hFc,[6],~5.1 fold
B3,binding result,[7],binds
B4,binding result,[8],binds
B5,binding result,[8],binds
B6,binding result,[9],binds
